B1: mTGase from Streptomyces mobaraensis (protein)
chain: DSDDRVTPPAEPLDRMPDPYRPSYGRAETVVNNYIRKWQQVYSHRDGRKQQMTEEQREWLSYGCVGVTWVNSGQYPTNRLAFASFDEDRFKNELKNGRPRSGETRAEFEGRVAKESFDEEKGFQRAREVASVMNRALENAHDESAYLDNLKKELANGNDALRNEDARSPFYSALRNTPSFKERNGGNHDPSRMKAVIYSKHFWSGQDRSSSADKRKYGDPDAFRPAPGTGLVDMSRDRNIPRSPTSPGEGFVNFDYGWFGAQTEADADKTVWTHGNHYHAPNGSLGAMHVYESKFRNWSEGYSDFDRGAYVITFIPKSWNTAPDKVKQGWP
B2: AlaPro-mTGase from S. mobaraensis (protein)
chain: APDSDDRVTPPAEPLDRMPDPYRPSYGRAETVVNNYIRKWQQVYSHRDGRKQQMTEEQREWLSYGCVGVTWVNSGQYPTNRLAFASFDEDRFKNELKNGRPRSGETRAEFEGRVAKESFDEEKGFQRAREVASVMNRALENAHDESAYLDNLKKELANGNDALRNEDARSPFYSALRNTPSFKERNGGNHDPSRMKAVIYSKHFWSGQDRSSSADKRKYGDPDAFRPAPGTGLVDMSRDRNIPRSPTSPGEGFVNFDYGWFGAQTEADADKTVWTHGNHYHAPNGSLGAMHVYESKFRNWSEGYSDFDRGAYVITFIPKSWNTAPDKVKQGWP
B3: GlyPro-mTGase from S. mobaraensis (protein)
chain: GPDSDDRVTPPAEPLDRMPDPYRPSYGRAETVVNNYIRKWQQVYSHRDGRKQQMTEEQREWLSYGCVGVTWVNSGQYPTNRLAFASFDEDRFKNELKNGRPRSGETRAEFEGRVAKESFDEEKGFQRAREVASVMNRALENAHDESAYLDNLKKELANGNDALRNEDARSPFYSALRNTPSFKERNGGNHDPSRMKAVIYSKHFWSGQDRSSSADKRKYGDPDAFRPAPGTGLVDMSRDRNIPRSPTSPGEGFVNFDYGWFGAQTEADADKTVWTHGNHYHAPNGSLGAMHVYESKFRNWSEGYSDFDRGAYVITFIPKSWNTAPDKVKQGWP
B4: Met-mTGase from S. mobaraensis (protein)
chain: MDSDDRVTPPAEPLDRMPDPYRPSYGRAETVVNNYIRKWQQVYSHRDGRKQQMTEEQREWLSYGCVGVTWVNSGQYPTNRLAFASFDEDRFKNELKNGRPRSGETRAEFEGRVAKESFDEEKGFQRAREVASVMNRALENAHDESAYLDNLKKELANGNDALRNEDARSPFYSALRNTPSFKERNGGNHDPSRMKAVIYSKHFWSGQDRSSSADKRKYGDPDAFRPAPGTGLVDMSRDRNIPRSPTSPGEGFVNFDYGWFGAQTEADADKTVWTHGNHYHAPNGSLGAMHVYESKFRNWSEGYSDFDRGAYVITFIPKSWNTAPDKVKQGWP
B5: Met-mTGase from S. ladakanum (protein)
chain: MDSDERVTPPAEPLDRMPDPYRPSYGRAETIVNNYIRKWQQVYSHRDGRKQQMTEEQREWLSYGCVGVTWVNSGQYPTNRLAFAFFDEDKYKNELKNGRPRSGETRAEFEGRVAKDSFDEAKGFQRARDVASVMNKALENAHDEGAYLDNLKKELANGNDALRNEDARSPFYSALRNTPSFKDRNGGNHDPSKMKAVIYSKHFWSGQDRSGSSDKRKYGDPEAFRPDRGTGLVDMSRDRNIPRSPTSPGESFVNFDYGWFGAQTEADADKTVWTHGNHYHAPNGSLGAMHVYESKFRNWSDGYSDFDRGAYVVTFVPKSWNTAPDKVKQGWP
B6: mature mTGase from Streptoverticillium ladakanum (protein)
chain: DSDERVTPPAEPLDRMPDPYRPSYGRAETIVNNYIRKWQQVYSHRDGRKQQMTEEQREWLSYGCVGVTWVNSGQYPTNRLAFAFFDEDKYKNELKNGRPRSGETRAEFEGRVAKDSFDEAKGFQRARDVASVMNKALENAHDEGAYLDNLKKELANGNDALRNEDARSPFYSALRNTPSFKDRNGGNHDPSKMKAVIYSKHFWSGQDRSGSSDKRKYGDPEAFRPDRGTGLVDMSRDRNIPRSPTSPGESFVNFDYGWFGAQTEADADKTVWTHGNHYHAPNGSLGAMHVYESKFRNWSDGYSDFDRGAYVVTFVPKSWNTAPDKVKQGWP
B7: AlaPro-mTGase from S. ladakanum (protein)
chain: APDSDERVTPPAEPLDRMPDPYRPSYGRAETIVNNYIRKWQQVYSHRDGRKQQMTEEQREWLSYGCVGVTWVNSGQYPTNRLAFAFFDEDKYKNELKNGRPRSGETRAEFEGRVAKDSFDEAKGFQRARDVASVMNKALENAHDEGAYLDNLKKELANGNDALRNEDARSPFYSALRNTPSFKDRNGGNHDPSKMKAVIYSKHFWSGQDRSGSSDKRKYGDPEAFRPDRGTGLVDMSRDRNIPRSPTSPGESFVNFDYGWFGAQTEADADKTVWTHGNHYHAPNGSLGAMHVYESKFRNWSDGYSDFDRGAYVVTFVPKSWNTAPDKVKQGWP
B8: GlyPro-mTGase from S. ladakanum (protein)
chain: GPDSDERVTPPAEPLDRMPDPYRPSYGRAETIVNNYIRKWQQVYSHRDGRKQQMTEEQREWLSYGCVGVTWVNSGQYPTNRLAFAFFDEDKYKNELKNGRPRSGETRAEFEGRVAKDSFDEAKGFQRARDVASVMNKALENAHDEGAYLDNLKKELANGNDALRNEDARSPFYSALRNTPSFKDRNGGNHDPSKMKAVIYSKHFWSGQDRSGSSDKRKYGDPEAFRPDRGTGLVDMSRDRNIPRSPTSPGESFVNFDYGWFGAQTEADADKTVWTHGNHYHAPNGSLGAMHVYESKFRNWSDGYSDFDRGAYVVTFVPKSWNTAPDKVKQGWP
B9: GlyPro-mTGase_Y62H_Y75N from S. ladakanum (protein)
chain: GPDSDERVTPPAEPLDRMPDPYRPSYGRAETIVNNYIRKWQQVYSHRDGRKQQMTEEQREWLSHGCVGVTWVNSGQNPTNRLAFAFFDEDKYKNELKNGRPRSGETRAEFEGRVAKDSFDEAKGFQRARDVASVMNKALENAHDEGAYLDNLKKELANGNDALRNEDARSPFYSALRNTPSFKDRNGGNHDPSKMKAVIYSKHFWSGQDRSGSSDKRKYGDPEAFRPDRGTGLVDMSRDRNIPRSPTSPGESFVNFDYGWFGAQTEADADKTVWTHGNHYHAPNGSLGAMHVYESKFRNWSDGYSDFDRGAYVVTFVPKSWNTAPDKVKQGWP
B10: GlyPro-mTGase_Y75F from S. ladakanum (protein)
chain: GPDSDERVTPPAEPLDRMPDPYRPSYGRAETIVNNYIRKWQQVYSHRDGRKQQMTEEQREWLSYGCVGVTWVNSGQFPTNRLAFAFFDEDKYKNELKNGRPRSGETRAEFEGRVAKDSFDEAKGFQRARDVASVMNKALENAHDEGAYLDNLKKELANGNDALRNEDARSPFYSALRNTPSFKDRNGGNHDPSKMKAVIYSKHFWSGQDRSGSSDKRKYGDPEAFRPDRGTGLVDMSRDRNIPRSPTSPGESFVNFDYGWFGAQTEADADKTVWTHGNHYHAPNGSLGAMHVYESKFRNWSDGYSDFDRGAYVVTFVPKSWNTAPDKVKQGWP
B11: GlyPro-mTGase_Y62H_Y75F from S. ladakanum (protein)
chain: GPDSDERVTPPAEPLDRMPDPYRPSYGRAETIVNNYIRKWQQVYSHRDGRKQQMTEEQREWLSHGCVGVTWVNSGQFPTNRLAFAFFDEDKYKNELKNGRPRSGETRAEFEGRVAKDSFDEAKGFQRARDVASVMNKALENAHDEGAYLDNLKKELANGNDALRNEDARSPFYSALRNTPSFKDRNGGNHDPSKMKAVIYSKHFWSGQDRSGSSDKRKYGDPEAFRPDRGTGLVDMSRDRNIPRSPTSPGESFVNFDYGWFGAQTEADADKTVWTHGNHYHAPNGSLGAMHVYESKFRNWSDGYSDFDRGAYVVTFVPKSWNTAPDKVTQGWP
B12: GlyPro-mTGase_Y75N from S. ladakanum (protein)
chain: GPDSDERVTPPAEPLDRMPDPYRPSYGRAETIVNNYIRKWQQVYSHRDGRKQQMTEEQREWLSYGCVGVTWVNSGQNPTNRLAFAFFDEDKYKNELKNGRPRSGETRAEFEGRVAKDSFDEAKGFQRARDVASVMNKALENAHDEGAYLDNLKKELANGNDALRNEDARSPFYSALRNTPSFKDRNGGNHDPSKMKAVIYSKHFWSGQDRSGSSDKRKYGDPEAFRPDRGTGLVDMSRDRNIPRSPTSPGESFVNFDYGWFGAQTEADADKTVWTHGNHYHAPNGSLGAMHVYESKFRNWSDGYSDFDRGAYVVTFVPKSWNTAPDKVKQGWP

Experiments:
[1] = biological target: wild type human growth hormone, P01241
Sequence of wild type human growth hormone, P01241 (P01241 27-217): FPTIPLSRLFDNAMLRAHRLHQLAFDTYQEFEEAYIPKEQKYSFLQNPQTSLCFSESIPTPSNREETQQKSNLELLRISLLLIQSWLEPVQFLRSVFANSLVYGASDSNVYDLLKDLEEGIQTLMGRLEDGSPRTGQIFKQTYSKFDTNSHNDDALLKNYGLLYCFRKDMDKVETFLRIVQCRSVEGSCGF

Sequence of hGHQ141N, P01241 (P01241 27-217 Q167N): as the sequence (P01241 27-217) above, with Q141N counted along it
Sequence of hGHQ40N, P01241 (P01241 27-217 Q66N): as the sequence (P01241 27-217) above, with Q40N counted along it

Protein	Activity towards hGHQ141N (RFU/sec/µg) (hGHQ141N, P01241)	Activity towards hGHQ40N (RFU/sec/µg) (hGHQ40N, P01241)	hGH conv. rate (%) [1] [%]	further results
B1	0.98	3.35	–	HPLC peak area of product-Q40 (hGHQ141N, P01241): area 296; Q141N (remaining substrate, normalized to 100) (normalized to 100) (hGHQ141N, P01241): 81; product-Q40 (normalized to 100) (normalized to 100) (hGHQ141N, P01241): 19; HPLC peak area of product-Q141 (hGHQ40N, P01241): area 1283; Q40N (remaining substrate, normalized to 100) (normalized to 100) (hGHQ40N, P01241): 29; product-Q141 (normalized to 100) (normalized to 100) (hGHQ40N, P01241): 71
B2	1.56	5.05	33	conversion rate, CE, reaction time 30 minutes [1]: conversion rate=32%; hGH conv. rate (%), reference of the separate experiment [1]: 39%
B3	1.13	4.28	–	–
B4	1.24	5.44	–	–
B5	0.8	4.74	–	–
B6	0.63	3.55	–	HPLC peak area of product-Q40 (hGHQ141N, P01241): area 127; Q141N (remaining substrate, normalized to 100) (normalized to 100) (hGHQ141N, P01241): 90; product-Q40 (normalized to 100) (normalized to 100) (hGHQ141N, P01241): 10; HPLC peak area of product-Q141 (hGHQ40N, P01241): area 1238; Q40N (remaining substrate, normalized to 100) (normalized to 100) (hGHQ40N, P01241): 23; product-Q141 (normalized to 100) (normalized to 100) (hGHQ40N, P01241): 77
B7	1.02	6.91	–	–
B8	0.48	4.25	55	–
B9	–	–	38	–
B10	–	–	41	hGH conversion rate, CE, reaction time 75 m [1]: hGH conversion rate=33%
B11	–	–	49.4	RS (relative selectivity), separate experiment [1]: 7.6; Selectivity (Q141/Q40), CE, separate experiment [1]: 76.5; hGH conv. rate (%), separate experiment [1]: 38.1%
B12	–	–	44	hGH conversion rate, CE, reaction time 90 m [1]: hGH conversion rate=50%
